{
  "source": "patent US12194080B2",
  "about": "“Methods for identification, assessment, prevention, and treatment of metabolic disorders using PM20D1 and N-lipidated amino acids” (Dana-Farber Cancer Institute, Inc., priority 2015, dated 2025)",
  "key": {"[1]": {"molecular_target": "T1, mouse PM20D1 (Mus musculus, UniProt Q8C165)", "T1 construct": "Full-length mouse Pm20d1 cDNA (GE Dharmacon) was subcloned with an in-frame C-terminal 6× His and FLAG® tag; made in house; host or cells: 293A (HEK293A) cells stably infected with retrovirus", "T1 sequence (Q8C165 25-503)": "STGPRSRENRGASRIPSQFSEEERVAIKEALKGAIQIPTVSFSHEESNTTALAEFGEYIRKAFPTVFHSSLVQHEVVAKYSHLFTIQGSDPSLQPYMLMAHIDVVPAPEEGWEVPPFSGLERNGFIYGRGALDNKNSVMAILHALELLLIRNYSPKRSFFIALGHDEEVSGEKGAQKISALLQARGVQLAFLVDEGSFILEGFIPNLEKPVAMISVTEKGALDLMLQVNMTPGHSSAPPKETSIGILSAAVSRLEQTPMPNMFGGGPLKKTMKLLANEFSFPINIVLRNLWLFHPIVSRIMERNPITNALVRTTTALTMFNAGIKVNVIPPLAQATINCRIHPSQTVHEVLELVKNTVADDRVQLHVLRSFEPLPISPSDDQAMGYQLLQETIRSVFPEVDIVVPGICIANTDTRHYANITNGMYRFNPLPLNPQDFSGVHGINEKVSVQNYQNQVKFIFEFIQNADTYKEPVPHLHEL", "assay": "In vitro PM20D1-catalyzed synthesis of N-acyl amino acids", "type": "biochemical", "details": "PBS, 37° C., 1.5 h", "experimental": "(§1) The concentrated media was centrifuged to remove debris (600×g, 10 min, 4° C.) and the supernatant containing PM20D1-flag was decanted into a new tube. PM20D1-Flag was immunoaffinity purified overnight at 4° C. from the concentrated media using magnetic Flag-M2 beads (Sigma Aldrich). The beads were collected, washed three times in PBS, eluted with 3× Flag peptide ([…] in PBS, Sigma Aldrich), aliquoted, and stored at −80° C. For the purification of human PM20D1-flag, hPM20D1-flag plasmid (Origene) was transiently transfected into 293A cells. After two days, the media was changed, harvested 24 h later, concentrated, and purified exactly as described above.\n(§2) In vitro PM20D1-catalyzed synthesis of N-acyl amino acids was measured by incubating purified PM20D1 protein with oleate (1.5 mM) and phenylalanine (0.1 mM) in PBS (to 100 μl final volume) at 37° C. for 1.5 hrs. In vitro PM20D1-catalyzed N-acyl amino acid hydrolysis was measured by incubating purified PM20D1 protein with the indicated N-acyl amino acid (0.1 mM) in PBS (to 100 μl final volume) at 37° C. for 1.5 hrs. Reactions were terminated by placing the vials at −80° C. and the products generated in vitro were analyzed by mass spectroscopy (MS).\n(§3) Briefly, frozen serum (30 μl) for polar metabolomic analyses were extracted in 160 μl of 1:1 acetonitrile/methanol with inclusion of internal standard D3, ^15N-serine (1 nmol). Activity assays (100 μl) were extracted in 400 μl 1:1 acetonitrile/methanol. Following 30 s of thorough vortexing and 1 min of bath sonication, the polar metabolite fraction (supernatant) was isolated by centrifugation at 13,000×g for 10 min. Ten μl of this supernatant was analyzed by SRM-based targeted LC-MS/MS, or untargeted LC-MS.\n(§4) For separation of polar metabolites, normal-phase chromatography was performed with a […] column (50 mm×4.60 mm, Phenomenex). Mobile phases were as follows: Buffer A, acetonitrile; Buffer B, 95:5 water/acetonitrile with 0.1% formic acid or 0.2% ammonium hydroxide with 50 mM ammonium acetate for positive and negative ionization mode, respectively. The flow rate for each run started at 0.2 ml/min for 2 min, followed by a gradient starting at 0% B and increasing linearly to 100% B over the course of 15 min with a flow rate of 0.7 ml/min, followed by an isocratic gradient of 100% B for 10 min at 0.7 ml/min before equilibrating for 5 min at 0% B with a flow rate of 0.7 ml/min. MS analysis was performed with an electrospray ionization (ESI) source on an Agilent 6430 QQQ LC—MS/MS. The capillary voltage was set to 3.5 kV, and the fragmentor voltage was set to 100 V. The drying gas temperature was 325° C., the drying gas flow rate was 10 l/min, and the nebulizer pressure was 45 psi. For polar targeted and untargeted metabolomic analysis, representative metabolites were quantified by SRM of the transition from precursor to product ions (corresponding to amino acid fragment) at associated collision energies. Several representative fragmentation ions are as follows: C18:1-Ala, 352>88; C18:1-Gly, 338>74; C18:1-Phe, 428>164; C18:1-Leu/Ile, 394>130; C20:4-Phe, 450>164; C20:4-Leu/Ile, 416>130. Untargeted LC-MS was performed by scanning a mass range of m/z 50-1200, and data were exported as mzdata files and uploaded to XCMSOnline (xcmsserver.nutr.berkeley.edu) to identify metabolites that were differentially changed. For targeted metabolomics analysis, metabolites were quantified by integrating the area under the peak and were normalized to internal standard values corresponding to 1 nmol D3, ^15N-serine."}, "[2]": {"molecular_target": "T1, mouse PM20D1", "assay": "In vitro PM20D1-catalyzed N-acyl amino acid hydrolysis", "type": "biochemical", "details": "PBS, 37° C., 1.5 h", "experimental": "as §1, §2, §3, §4"}, "[3]": {"test_system": "APOA1", "assay": "FLAG immunoprecipitation of PM20D1-flag from primary brown fat cells with mass spectrometry identification", "type": "binding, mouse", "text": "The mass spectrometry identification of the indicated proteins (PM20D1 or APOA1) are indicated to the right of the gel."}},
  "note": "Entries after “also recorded” stand apart in the source; their conditions may differ.",
  "data": [
    {"molecule": "PM20D1: purified recombinant C-terminal 6xHis/flag-tagged mouse peptidase M20 domain containing 1, a secreted enzyme (protein, listed as Homo sapiens, C-terminal 6xHis/flag tag, purified recombinant C-terminal 6xHis/flag-tagged mouse peptidase M20 domain containing 1, a secreted enzyme) MAQRCVCVLALVAMLLLVFPTVSRSMGPRSGEHQRASRIPSQFSKEERVAMKEALKGAIQIPTVTFSSEKSNTTALAEFGKYIHKVFPTVVSTSFIQHEVVEEYSHLFTIQGSDPSLQPYLLMAHFDVVPAPEEGWEVPPFSGLERDGIIYGRGTLDDKNSVMALLQALELLLIRKYIPRRSFFISLGHDEESSGTGAQRISALLQSRGVQLAFIVDEGGFILDDFIPNFKKPIALIAVSEKGSMNLMLQVNMTSGHSSAPPKETSIGILAAAVSRLEQTPMPIIFGSGTVVTVLQQLANEFPFPVNIILSNPWLFEPLISRFMERNPLTNAIIRTTTALTIFKAGVKFNVIPPVAQATVNFRIHPGQTVQEVLELTKNIVADNRVQFHVLSAFDPLPVSPSDDKALGYQLLRQTVQSVFPEVNITAPVTSIGNTDSRFFTNLTTGIYRFYPIYIQPEDFKRIHGVNEKISVQAYETQVKFIFELIQNADTDQEPVSHLHKL", "values": [
      {"measurement": "conversion in the synthase direction", "setting": "[1]; oleate 1.5 mM, Phe 100 μM, n=3", "value": "1.2±0.1", "unit": "%"},
      {"measurement": "N-acyl amino acid synthase activity", "setting": "[1]; oleate and Phe as substrates", "value": "Significant formation of C18:1-Phe; also recorded: possessed enzymatic activity"},
      {"measurement": "conversion in the hydrolase direction", "setting": "[2]; C18:1-Phe 100 μM, n=3", "value": "94.0±0.8", "unit": "%"},
      {"measurement": "N-acyl amino acid hydrolase activity", "setting": "[2]; C18:1-Phe as substrate", "value": "possessed enzymatic activity"},
      {"measurement": "interaction with apolipoprotein 1 (APOA1)", "setting": "[3]", "value": "interacts with apolipoprotein 1 (APOA1)"}
    ]}
  ]
}
